Publication doi:10.1101/2025.11.17.685403
Substitutions are numbered along the chain they refer to. Like-named read-outs stand apart in the source and are kept apart here.

What was measured:
Assay in all cases: fluorescence polarization
[1] = molecular target: T1, RFS1 (cShu subunit);RIP1 (cShu subunit);SWS1 (cShu subunit) (Caenorhabditis elegans;Caenorhabditis …, UniProt P34348;Q21621;Q8MYM5 1-245;1-209;1-191, ||)
T1 sequence 1: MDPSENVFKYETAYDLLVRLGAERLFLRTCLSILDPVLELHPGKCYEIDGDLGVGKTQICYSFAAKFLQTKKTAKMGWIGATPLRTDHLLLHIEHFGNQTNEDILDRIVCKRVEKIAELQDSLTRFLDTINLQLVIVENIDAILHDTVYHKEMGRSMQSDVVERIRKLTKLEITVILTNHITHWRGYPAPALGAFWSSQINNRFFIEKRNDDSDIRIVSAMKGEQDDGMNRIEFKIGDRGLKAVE
T1 sequence 2: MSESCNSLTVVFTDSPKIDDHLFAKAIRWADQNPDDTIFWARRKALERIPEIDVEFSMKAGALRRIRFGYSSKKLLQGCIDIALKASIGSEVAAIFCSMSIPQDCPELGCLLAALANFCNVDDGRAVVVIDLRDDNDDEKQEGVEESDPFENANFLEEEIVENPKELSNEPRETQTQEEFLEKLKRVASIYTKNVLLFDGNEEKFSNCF
T1 sequence 3: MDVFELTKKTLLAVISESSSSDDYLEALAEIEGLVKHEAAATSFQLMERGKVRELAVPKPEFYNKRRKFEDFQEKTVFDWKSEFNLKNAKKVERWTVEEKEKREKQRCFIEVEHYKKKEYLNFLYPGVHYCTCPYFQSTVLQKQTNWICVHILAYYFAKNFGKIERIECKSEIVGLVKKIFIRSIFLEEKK

[2] = molecular target: T1, RFS1 (cShu subunit);RIP1 (cShu …); remark: listed apart in the source
[3] = molecular target: T1, RFS1 (cShu subunit);RIP1 (cShu …); remark: listed apart in the source
[4] = molecular target: T2, RFS1 E138A (Walker B);RIP1 (cShu subunit);SWS1 (cShu subunit) (Caenorhabditis elegans;Caenorhabditis …, UniProt P34348;Q21621;Q8MYM5 1-245;1-209;1-191, E138A||)
T2 sequence 1: T1 sequence 1 with E138A
T2 sequence 2: T1 sequence 2
T2 sequence 3: T1 sequence 3

[5] = molecular target: T3, RFS1 K56A (Walker A);RIP1 (cShu subunit);SWS1 (cShu subunit) (Caenorhabditis elegans;Caenorhabditis …, UniProt P34348;Q21621;Q8MYM5 1-245;1-209;1-191, K56A||)
T3 sequence 1: T1 sequence 1 with K56A
T3 sequence 2: T1 sequence 2
T3 sequence 3: T1 sequence 3

[6] = molecular target: T1, RFS1 (cShu subunit);RIP1 (cShu …); remark: listed apart in the source
[7] = molecular target: T2, RFS1 E138A (Walker B);RIP1 (cShu …); remark: listed apart in the source
[8] = molecular target: T3, RFS1 K56A (Walker A);RIP1 (cShu …); remark: listed apart in the source
[9] = molecular target: T2, RFS1 E138A (Walker B);RIP1 (cShu …); remark: listed apart in the source
[10] = molecular target: T3, RFS1 K56A (Walker A);RIP1 (cShu …); remark: listed apart in the source

B1: 3'-overhang (20 nt) (mixed)
DNA 1: CTTGACAAGCTTGCGCACT
DNA 2: AGTGCGCAAGCTTGTCAAGGCACTTTTTTTTTTTTTTTT
- binding result [1]: no binding

B2: Fork (5 nt) (mixed)
DNA 1: ACTGCCCTTACAGCACAGCGGTTTTT
DNA 2: TTTTTCCGCTGTGCTGTAAGGGCAGT
- binding result [2]: no binding

B3: ds21 (dsDNA)
DNA 1: ACTTACAGCACAGCGGTTTTT
DNA 2: AAAAACCGCTGTGCTGTAAGT
- binding result [2]: no binding

Binder: ACTTACAGCACAGCGGTTTTT (ssDNA) [ss21]
- binding result [2]: no binding

Binder: ACTGCCCTTACAGCACAGCGGTTTTT (ssDNA) [ss26]
- Kd [2]: 4.2 ± 0.4 µM

B4: 5'-overhang (10 nt) (mixed)
DNA 1: ACTGCCCTTACAGCACAGCGG
DNA 2: TTTTTTTTTTCCGCTGTGCTGTAAGGGCAGT
- binding result [2]: no binding

B5: ds26 (dsDNA)
DNA 1: ACTGCCCTTACAGCACAGCGGTTTTT
DNA 2: AAAAACCGCTGTGCTGTAAGGGCAGT
- binding result [2]: no binding

Binder: ACTGCCCTTACAGCACAGCGGTTTTTTTTTT (ssDNA) [ss31]
- Kd [2]: 3.2 ± 0.3 µM

B6: Fork (10 nt) (mixed)
DNA 1: ACTGCCCTTACAGCACAGCGGTTTTTTTTTT
DNA 2: B4 DNA 2
- binding result [2]: no binding

B7: 3'-overhang (10 nt) (mixed)
DNA 1: B6 DNA 1
DNA 2: CCGCTGTGCTGTAAGGGCAGT
- binding result [2]: no binding

B8: 5'-overhang (20 nt) (mixed)
DNA 1: TTTTTTTTTTTTTTTTTTTTCTTGACAAGCTTGCGCACT
DNA 2: AGTGCGCAAGCTTGTCAAG
- Kd [3]: 3800 ± 300 nM
- Kd [4]: 1200 ± 100 nM
- Kd [5]: 4.7 ± 0.2 µM
- Kd [6]: 695 ± 3 nM
- Kd [7]: 760 ± 40 nM
- Kd [8]: 3900 ± 400 nM
- Kd [1]: 4200 ± 500 nM
- Kd [9]: 3900 ± 100 nM
- Kd [10]: 4.5 ± 0.3 µM

B9: ds39 (dsDNA)
DNA 1: B8 DNA 1
DNA 2: AGTGCGCAAGCTTGTCAAGAAAAAAAAAAAAAAAAAAAA
- binding result [1]: no binding
- binding result [9]: no binding
- binding result [10]: no binding

Binder: TTTTTTTTTTTTTTTTTTTTCTTGACAAGCTTGCGCACT (ssDNA) [ss39]
- Kd [3]: 2900 ± 300 nM
- Kd [4]: 2200 ± 100 nM
- Kd [5]: 3.3 ± 0.1 µM
- Kd [6]: 1000 ± 100 nM
- Kd [7]: 1000 ± 20 nM
- Kd [8]: 3000 ± 100 nM
- Kd [1]: 2900 ± 100 nM
- Kd [9]: 2700 ± 200 nM
- Kd [10]: 3.3 ± 0.2 µM

B10: Fork (20 nt) (mixed)
DNA 1: B8 DNA 1
DNA 2: B1 DNA 2
- Kd [3]: 500 ± 20 nM
- Kd [4]: 380 ± 30 nM
- Kd [5]: 2.5 ± 0.1 µM
- Kd [6]: 210 ± 20 nM
- Kd [7]: 140 ± 10 nM
- Kd [8]: 2680 ± 80 nM
- Kd [1]: 2800 ± 300 nM
- Kd [9]: 1900 ± 200 nM
- Kd [10]: 2.5 ± 0.3 µM

B11: 3'-overhang (5 nt) (mixed)
DNA 1: ACTGCCCTTACAGCACAGCGGTTTTT
DNA 2: CCGCTGTGCTGTAAGGGCAGT
- binding result [2]: no binding

B12: 5'-overhang (5 nt) (mixed)
DNA 1: ACTGCCCTTACAGCACAGCGG
DNA 2: TTTTTCCGCTGTGCTGTAAGGGCAGT
- binding result [2]: no binding
